Laboratory results as given in the supplement of paper PMC9732359.
± gives the uncertainty stated by the source.

Test: protein stability index of a GFP-peptide fusion (yeast GPS) (PSI 1-4); higher = more stable; sorted into four equal gates, so the index is relative within each strain
In short: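 The protein stability index of a peptide was calculated by multiplying its read frequency in each gate by that gate's number and adding the products. The peptides were tiled 17-residue stretches of yeast proteins, fused downstream of GFP on a Cherry-expressing plasmid and carried in yeast as a pooled library. Mid-log cultures in leucine-free medium were sorted into four equal gates by GFP/Cherry ratio, and each gate's plasmids were PCR-amplified and Illumina-sequenced.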

Sequence	protein stability index (doa10∆)	protein stability index (pdr5∆)	protein stability index (san1∆)	protein stability index (ubr1∆)
EFLKWTPNVNVLVLHGD [ISW2]	1.69 ± 0.064	1.69 ± 0.06	1.53 ± 0.12	1.84 ± 0.082
VGEKLVVVVLEEPSASI [SIR3]	3.07 ± 0.076	2.94 ± 0.087	3.2 ± 0.052	3.1 ± 0.13
FEYLATVMYQRRSKMNP [PRE4]	2.11 ± 0.12	2.72 ± 0.21	2.6 ± 0.15	2.57 ± 0.28
RREELQQRIREIGLLPE [SMC3]	3.34 ± 0.12	3.06 ± 0.2	3.21 ± 0.075	3.45 ± 0.066
KMYDYEEKEESNLAATK [RPN11]	3.17 ± 0.074	3.06 ± 0.082	2.87 ± 0.056	2.96 ± 0.1
ILNAKYTKETYQSRGID [RPN6]	2.96 ± 0.062	3.04 ± 0.066	2.97 ± 0.06	2.8 ± 0.056
VNKYGLRADKLYEKLKQ [ISW2]	1.52 ± 0.13	1.5 ± 0.11	1.6 ± 0.13	1.47 ± 0.15
HLGLDDPQDVFNYNIFM [SIR2]	2.99 ± 0.087	3.2 ± 0.14	3.24 ± 0.13	3.26 ± 0.078
IKVPTYIRKLISSGLLY [SRB8]	1.38 ± 0.048	1.27 ± 0.07	1.38 ± 0.085	1.2 ± 0.067
ARTATVSKKWAAAAVCE [RPL14A]	2.9 ± 0.089	3.21 ± 0.084	3.58 ± 0.11	2.71 ± 0.066
QIFKVAGENAPSIVFID [RPT2]	1.84 ± 0.098	1.2 ± 0.059	1.31 ± 0.13	1.33 ± 0.066
IYSRDIGAELKREESES [SNF2]	3.06 ± 0.087	3.19 ± 0.086	3.08 ± 0.066	3.01 ± 0.071
ESKGNAFKHKRALVEHI [RPL19A]	3.36 ± 0.087	3.38 ± 0.1	3.44 ± 0.047	3.29 ± 0.054
VARTFWASKYGQEYPRI [BRR2]	2.42 ± 0.15	2.38 ± 0.17	2.32 ± 0.17	3.06 ± 0.094
NHWRQNKGRAVYINPSG [BRR2]	2.97 ± 0.12	2.78 ± 0.089	2.85 ± 0.074	3.16 ± 0.1
TPDTKNFFHAKKKDPVN [SNF12]	3.29 ± 0.097	2.97 ± 0.079	3.1 ± 0.068	3.17 ± 0.1
DFKNEESLSEEHASLLV [MED8]	3.35 ± 0.11	3.12 ± 0.16	3.08 ± 0.06	3.26 ± 0.063
VSMYQNSSTSSTSNTPS [YDL088C/ASM4]	2.59 ± 0.064	2.6 ± 0.064	2.58 ± 0.074	2.69 ± 0.046
NCPHSDSTQLLETILEE [SSN2]	2.81 ± 0.1	3.1 ± 0.088	3.11 ± 0.13	2.94 ± 0.063

Sequence	protein stability index (doa10∆)	protein stability index (pdr5∆)	protein stability index (san1∆)	protein stability index (ubr1∆)
DLSEKILNDIETLEHNP [BRR2]	3.06 ± 0.055	3.21 ± 0.07	3.05 ± 0.055	3.13 ± 0.043
LSIAFENGDYAACEKLL [RPN12]	3.13 ± 0.17	3 ± 0.12	3.16 ± 0.077	3.24 ± 0.12
FEAQIDSVEFIFQAKRN [RPN10]	2.32 ± 0.11	2.67 ± 0.082	2.45 ± 0.13	2.66 ± 0.1
NIPWDVPGMPAPIKKII [PRP8]	2.75 ± 0.3	2.91 ± 0.19	2.8 ± 0.28	3.05 ± 0.2
SNLQRAQNVPMNIIQQQ [GAL11]	2.47 ± 0.052	2.55 ± 0.047	2.34 ± 0.078	2.34 ± 0.031
ASSLRFGNSLSNTVNAN [YDL088C/ASM4]	2.81 ± 0.068	2.78 ± 0.075	2.65 ± 0.059	2.89 ± 0.074
QQIPLLCYMAPMTVKLV [POP3]	1.63 ± 0.052	1.57 ± 0.047	1.78 ± 0.072	1.53 ± 0.057
LESEIASSSAKLIEKKS [SMC2]	2.69 ± 0.072	3.03 ± 0.058	3.08 ± 0.04	3 ± 0.055
KKKTTLEDFENFKGLAK [YIL149C/MLP2]	2.82 ± 0.031	2.99 ± 0.03	2.957 ± 0.024	2.909 ± 0.026
IDLLWKGKTPKNAAESS [PRP28]	2.86 ± 0.17	3.12 ± 0.18	2.91 ± 0.15	3.14 ± 0.13
NFEKILLTCYELEKKYH [SRB8]	1.98 ± 0.1	2.34 ± 0.1		3.71 ± 0.21
KEKWPSLELQSFQKIPL [YML103C/NUP188]	2.27 ± 0.1	2.62 ± 0.12	2.03 ± 0.11	2.73 ± 0.11
SLEEIIAEGQKKFATVP [RPP2B]	2.77 ± 0.061	2.89 ± 0.058	2.93 ± 0.061	2.59 ± 0.04
TDLESKSRMINFLDAPG [SNU114]	2.65 ± 0.078	2.95 ± 0.094	2.71 ± 0.067	2.8 ± 0.047
AEKSFKPPKNKYKVVRR [SEC65]	2.58 ± 0.18	3 ± 0.17	3.21 ± 0.071	3.16 ± 0.13
VLLDARDIEKITSLYAL [CDC53]	1.69 ± 0.038	1.99 ± 0.034	1.72 ± 0.06	2.02 ± 0.029
LGPRGVSITPGKIEKIA [SRP21]	2.02 ± 0.065	2.62 ± 0.049	1.98 ± 0.088	2.41 ± 0.039
VSKKWAAAAVCEKWAAS [RPL14A]	2.42 ± 0.083	3.04 ± 0.15	2.6 ± 0.094	2.17 ± 0.077
GDKVVVTIWYRAPELLL [SSN3]	1.74 ± 0.058	1.78 ± 0.072	1.74 ± 0.068	2.05 ± 0.044
